{
  "source": "patent US12070492B2",
  "about": "“Therapeutic compositions and methods with cytokine signaling immunomodulators” (Hennepin Healthcare Research Institute, priority 2016, dated 2024)",
  "molecules": {"B1": {"name": "IL-4: recombinant mouse IL-4 from Bio-Techne Corp., co-administered with OXY-KLH (protein, UniProt P07750 21-140, looked up)", "Interleukin-4": "HIHGCDKNHLREIIGILNEVTGEGTPCTEMDVPNVLTATKNTTESELVCRASKVLRIFYLKHGKTPCLKKNSSVLMELQRLFRAFRCLDSSISCTMNESKSTSLKDFLESLKSIMQMDYS"}},
  "key": {"[1]": {"assay": "Pre-clinical toxicology: serum biochemistry parameters and body weight", "format": "in vivo, BALB/c mice", "protocol": "Serum biochemistry parameters in BALB/C mice treated with KLH, OXY-KLH, anti-IL-4 mAb, or anti-IL-4 mAb plus OXY-KLH. […] The values for AST (aspartate aminotransferase) were higher among groups, perhaps as a result of muscle injury due from the injections.\n(§1) Male BALB/c mice were immunized with KLH, OXY-KLH, anti-IL-4 mAb, or OXY-KLH plus anti-IL-4 mAb. The OXY-KLH and the unconjugated KLH control were administered subcutaneously on days 0, 14 and 28, while the anti-IL-4 mAb was administered intraperitoneally as in EXAMPLE 2. A week after the third immunization, mice were euthanized with CO2 to perform histopathology and clinical pathology by serum chemistry. Organs were harvested and preserved in 10% formaldehyde (methanol free, ultrapure EM grade, Polysciences, Inc., Warminster, PA), and sent to the University of Minnesota School of Veterinary Medicine for histology analysis in the laboratory of Dr. Davis Seelig. Serum was collected by centrifugation at 7500 rpm for three minutes at 4° C. and collected in lithium heparin ([…], Becton, Dickinson and Co., Franklin Lakes, NJ). Frozen samples were sent to Marshfield Labs (Marshfield, WI) for the panel tests analysis."}, "[2]": {"assay": "Histopathology across four treatment groups", "format": "in vivo, BALB/c mice", "protocol": "FIG. 12. Co-administration of vaccines and an anti-IL-4 mAb is safe. Histopathology across four treatment groups. […] Occasionally, these regions of were centered on lymphocyte-rich lymphatic vessels. The severity of the lung pathology was similar across the four treatment groups.\nas §1"}, "[3]": {"system": "6OXY-specific GC B cells", "assay": "6OXY-specific GC B cells by magnetic enrichment and flow cytometry after OXY-KLH with IL-4", "format": "in vivo, mice", "conditions": "IL-4 60,000 IU s.c. with OXY-KLH in alum, seven days after one immunization", "source_text": "FIG. 4. IL-4 increased vaccine-specific GC B cells and post-vaccination GC formation. Mice were immunized subcutaneously once with the OXY-KLH vaccine adsorbed in alum adjuvant with saline or IL-4 (60,000 IU, subcutaneously). At seven days after immunization, lymph nodes and spleens were collected for analysis of antigen-specific B cell populations. Using a two-step procedure, OXY-specific B cells were first isolated by magnetic enrichment using biotinylated oxycodone-based haptens conjugated to streptavidin (SA) conjugated to the fluorescent protein phycoerythrin (PE) or a decoy reagent, and then analyzed by multi-parameter flow cytometry. (A) 6OXY-specific CD38^neg GL7^high “committed” GC B cells; (B) 6OXY-specific CD38^+ GL7^+ “uncommitted” GC B cells; (C) Ratio of 6OXY-specific (CD38^neg) to (CD38^+) GL7^+ B cells, a measure of GC activation and B cell commitment to GC-dependent pathways; (D) 6OXY-specific IgM^high naive and memory B cells. Data shown are from two independent experiments and expressed as mean±SEM (n=10). […] Statistical symbols: *p<0.05, and […].\nMice were immunized subcutaneously once with OXY-KLH in alum adjuvant in combination with IL-4 (60,000 IU, Bio-Techne Corp., Minneapolis, MN). […]"}, "[4]": {"conditions": "serum, BALB/c mice, a week after third immunization, mean ± SEM"}},
  "data": [
    {"molecule": "keyhole limpet hemocyanin [KLH]", "values": [
      {"measurement": "Body weight", "setting": "[1]; BALB/c mice, a week after third immunization, mean ± SEM", "result": "26.5 ± 0.39", "unit": "g"},
      {"measurement": "Protein, bilirubin, ALT, urea nitrogen, and total cholesterol versus normal range", "setting": "[1]; serum, BALB/C mice", "result": "in the normal range"},
      {"measurement": "Values for AST (aspartate aminotransferase)", "setting": "[1]; serum, BALB/C mice, perhaps muscle injury from the injections", "result": "higher"},
      {"measurement": "ALT", "setting": "[1]; [4]", "result": "71.6 ± 3.2^ U/L"},
      {"measurement": "AST", "setting": "[1]; [4]", "result": "626 ± 24.7", "unit": "U/L"},
      {"measurement": "Cholesterol", "setting": "[1]; [4]", "result": "161 ± 10.4", "unit": "mg/dL"},
      {"measurement": "Total bilirubin", "setting": "[1]; [4]", "result": "0.2 ± 0.10", "unit": "mg/dL"},
      {"measurement": "Total protein", "setting": "[1]; [4]", "result": "5.7 ± 0.32", "unit": "g/dL"},
      {"measurement": "Urea nitrogen", "setting": "[1]; [4]", "result": "20 ± 1.5", "unit": "mg/dL"},
      {"measurement": "Histopathology, kidney, heart, thymus, stomach, small intestine, large intestine, and pancreas", "setting": "[2]; mouse, in vivo", "result": "No significant pathology"},
      {"measurement": "Histopathology, spleen", "setting": "[2]; mouse, in vivo", "result": "No significant pathology"},
      {"measurement": "Histopathology, liver (centrolobular hepatocytes)", "setting": "[2]; similar in severity across four treatment groups", "result": "occasionally moderate vacuolar change"},
      {"measurement": "Histopathology, lungs (interstitium)", "setting": "[2]; with concurrent congestion, severity similar across the four treatment groups", "result": "mild to occasionally moderately increased numbers of inflammatory cells"}
    ]},
    {"molecule": "B1", "values": [
      {"measurement": "post-vaccination GC formation (fraction of subjects)", "setting": "[3]", "result": "increased"},
      {"measurement": "vaccine-specific GC B cells", "setting": "[3]", "result": "increased"}
    ]}
  ]
}
